# Laboratory results published in patent publication US20190127470A1 (TRUSTEES OF DARTMOUTH COLLEGE, published 2019).
# B1: B7H6-Ig, a fusion protein containing the extracellular portion of B7H6 and the Fc portion of a Mouse IgG2a (Fc fusion, UniProt Q68D85 25-262, looked up)
# chain: DLKVEMMAGGTQITPLNDNVTIFCNIFYSQPLNITSMGITWFWKSLTFDKEVKVFEFFGDHQEAFRPGAIVSPWRLKSGDASLRLPGIQLEEAGEYRCEVVVTPLKAQGTVQLEVVASPASRLLLDQVGMKENEDKYMCESSGFYPEAINITWEKQTQKFPHPIEISEDVITGPTIKNMDGTFNVTSCLKLNSSQEDPGTVYQCVVRHASLHTPLRSNFTLTAARHSLSETEKTDNFS
# notes: extracellular domain; also called soluble B7H6-Ig antigen; not shown: Fc portion of a Mouse IgG2a
# Target: T1, g2.5-11 scFv-Fc (UniProt P01857-1 1-330 = IgG part)
# T1 construct: domain: heavy chain constant regions (CH1-CH3); also called g2.5-3 (identical at the amino acid level); Fg2.5-3
# T1 sequence (P01857 other isoform, or with tags, fused parts or gaps limits assumed): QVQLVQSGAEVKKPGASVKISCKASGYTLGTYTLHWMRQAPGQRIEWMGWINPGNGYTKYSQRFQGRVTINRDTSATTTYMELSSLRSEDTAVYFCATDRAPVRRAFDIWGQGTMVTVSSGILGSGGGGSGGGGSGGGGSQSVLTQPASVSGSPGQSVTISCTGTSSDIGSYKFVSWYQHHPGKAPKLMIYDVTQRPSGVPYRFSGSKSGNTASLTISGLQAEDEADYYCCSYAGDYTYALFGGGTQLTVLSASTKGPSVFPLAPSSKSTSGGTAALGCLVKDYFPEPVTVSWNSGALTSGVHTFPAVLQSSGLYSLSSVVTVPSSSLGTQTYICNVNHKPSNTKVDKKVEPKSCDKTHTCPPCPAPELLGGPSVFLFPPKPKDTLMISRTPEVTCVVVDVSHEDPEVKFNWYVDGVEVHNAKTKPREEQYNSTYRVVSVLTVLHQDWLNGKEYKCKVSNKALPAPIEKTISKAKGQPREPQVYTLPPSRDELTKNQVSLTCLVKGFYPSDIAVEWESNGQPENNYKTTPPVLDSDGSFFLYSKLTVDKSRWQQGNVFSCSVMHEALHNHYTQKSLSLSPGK
# Assay: Octet BLI, scFv-Fc loaded on anti-human CH1 tips, 0-500 nM B7H6-Ig in solution, global fit
# Experimental: Anti-Human CH1 tips were activated with 0.05 mg/mL a2.5-11 scFv-Fc protein for 600 seconds to ensure saturation of tips with […]. Tips were then transferred to PBS+0.1% Tween (PBS-T)-containing wells for baseline measurements of scFv-Fc-loaded tips before transferring to antigen-containing wells ranging from 0-500 nM B7H6-Ig. Samples were double-referenced using non-activated tips and PBS-T only containing wells. The Octet Analysis software was used for global kinetic fits which determine a single KD measurement for each antigen using association and dissociation curves for all concentrations tested.
binder,measurement,value
B1,Kd,25.7 nM
same,koff,0.00035 s⁻¹
same,kon,13700 M⁻¹ s⁻¹
